Fewer inactive variants are shown than the library holds.
Key:
biotinyl-Val-oxazolone = test: self-aminoacylation, catalytic enhancement (BVO) (fold over background); higher = more active; k-Seq, kA / k0A0; sequences stand for … in GGGAAUGGAUCCACAUCUACGAAUUC…UUCACUGCAGACUUGACGAAGCUG
How it was run: (§1)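 Mutagenized RNA pools (0.43 μM; 21-nt variable region) were treated with 2–1250 μM of each biotinyl-aminoacyl-oxazolone. Conditions were 50 μL HEPES/NaCl/KCl/MgCl2/CaCl2 buffer, 5% acetonitrile, pH 6.9–7.0, room temperature, 90 minutes. Catalytic enhancement, the median kA relative to the uncatalyzed rate, was derived from streptavidin capture, qPCR and Illumina sequencing.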

biotinyl-Ile-oxazolone = test: self-aminoacylation, catalytic enhancement (BIO) (fold over background); higher = more active; k-Seq, kA / k0A0; sequences stand for … in GGGAAUGGAUCCACAUCUACGAAUUC…UUCACUGCAGACUUGACGAAGCUG
How it was run: as §1

biotinyl-Phe-oxazolone = test: self-aminoacylation, catalytic enhancement (BFO) (fold over background); higher = more active; k-Seq, kA / k0A0; sequences stand for … in GGGAAUGGAUCCACAUCUACGAAUUC…UUCACUGCAGACUUGACGAAGCUG
How it was run: as §1

biotinyl-Leu-oxazolone = test: self-aminoacylation, catalytic enhancement (BLO) (fold over background); higher = more active; k-Seq, kA / k0A0; sequences stand for … in GGGAAUGGAUCCACAUCUACGAAUUC…UUCACUGCAGACUUGACGAAGCUG
How it was run: as §1

biotinyl-Met-oxazolone = test: self-aminoacylation, catalytic enhancement (BMO) (fold over background); higher = more active; k-Seq, kA / k0A0; sequences stand for … in GGGAAUGGAUCCACAUCUACGAAUUC…UUCACUGCAGACUUGACGAAGCUG
How it was run: as §1

biotinyl-Trp-oxazolone = test: self-aminoacylation, catalytic enhancement (BWO) (fold over background); higher = more active; k-Seq, kA / k0A0; sequences stand for … in GGGAAUGGAUCCACAUCUACGAAUUC…UUCACUGCAGACUUGACGAAGCUG
How it was run: as §1

“CCAAACUUCAAUCAAUCGGUC [Fam1B.1 aminoacylation ribozyme variant]” showed a self-aminoacylation (biotinyl-Val-oxazolone) of 1.28, a self-aminoacylation (biotinyl-Ile-oxazolone) of 1.29 and a self-aminoacylation (biotinyl-Phe-oxazolone) of 36.8. For the same sequence, the self-aminoacylation (biotinyl-Leu-oxazolone) was 1.73, the self-aminoacylation (biotinyl-Met-oxazolone) was 1.43 and the self-aminoacylation (biotinyl-Trp-oxazolone) was 23.5.
Sequence “CCAAACUUGAAGCAAUCGGUC [Fam1B.1 aminoacylation ribozyme variant]” has a self-aminoacylation (biotinyl-Val-oxazolone) of 0.996, a self-aminoacylation (biotinyl-Ile-oxazolone) of 0.898 and a self-aminoacylation (biotinyl-Phe-oxazolone) of 0.596. For the same sequence, the self-aminoacylation (biotinyl-Leu-oxazolone) was 0.828, the self-aminoacylation (biotinyl-Met-oxazolone) was 0.87 and the self-aminoacylation (biotinyl-Trp-oxazolone) was 0.693.
With “CCAAAGUUCAAGCAAUCGGUC [Fam1B.1 aminoacylation ribozyme variant]” the self-aminoacylation (biotinyl-Val-oxazolone) was 1.4, the self-aminoacylation (biotinyl-Ile-oxazolone) was 1.35 and the self-aminoacylation (biotinyl-Phe-oxazolone) was 1.35. It also gave a self-aminoacylation (biotinyl-Leu-oxazolone) of 1.28, a self-aminoacylation (biotinyl-Met-oxazolone) of 1.32 and a self-aminoacylation (biotinyl-Trp-oxazolone) of 1.17.
“CCAAUUCAAACAAUCGGUCUG [Fam1A.1 aminoacylation ribozyme variant]” was tested, and the self-aminoacylation (biotinyl-Val-oxazolone) was 1.11, the self-aminoacylation (biotinyl-Ile-oxazolone) was 1.11 and the self-aminoacylation (biotinyl-Phe-oxazolone) was 6.78. It also gave a self-aminoacylation (biotinyl-Leu-oxazolone) of 1.16, a self-aminoacylation (biotinyl-Met-oxazolone) of 1.02 and a self-aminoacylation (biotinyl-Trp-oxazolone) of 5.22.
For “CCACAAGUCAAGCAAUCGGUC [Fam1B.1 aminoacylation ribozyme variant]”, the self-aminoacylation (biotinyl-Val-oxazolone) was 1.54, the self-aminoacylation (biotinyl-Ile-oxazolone) was 1.64 and the self-aminoacylation (biotinyl-Phe-oxazolone) was 1.15. For the same sequence, the self-aminoacylation (biotinyl-Leu-oxazolone) was 1.49, the self-aminoacylation (biotinyl-Met-oxazolone) was 1.67 and the self-aminoacylation (biotinyl-Trp-oxazolone) was 1.32.
“CCACAAUUCAAGCAAUCGGAC [Fam1B.1 aminoacylation ribozyme variant]” showed a self-aminoacylation (biotinyl-Val-oxazolone) of 0.798, a self-aminoacylation (biotinyl-Ile-oxazolone) of 1.15 and a self-aminoacylation (biotinyl-Phe-oxazolone) of 0.942. It also gave a self-aminoacylation (biotinyl-Leu-oxazolone) of 0.884, a self-aminoacylation (biotinyl-Met-oxazolone) of 0.783 and a self-aminoacylation (biotinyl-Trp-oxazolone) of 0.711.
With “CCACAAUUCAAGCAAUCGGUC [Fam1B.1 aminoacylation ribozyme variant]” the self-aminoacylation (biotinyl-Val-oxazolone) was 1.16, the self-aminoacylation (biotinyl-Ile-oxazolone) was 1.17 and the self-aminoacylation (biotinyl-Phe-oxazolone) was 2.8. For the same sequence, the self-aminoacylation (biotinyl-Leu-oxazolone) was 0.973, the self-aminoacylation (biotinyl-Met-oxazolone) was 0.936 and the self-aminoacylation (biotinyl-Trp-oxazolone) was 1.69.
“CCACAAUUCAAGCAGUCGGUC [Fam1B.1 aminoacylation ribozyme variant]” showed a self-aminoacylation (biotinyl-Val-oxazolone) of 1.22, a self-aminoacylation (biotinyl-Ile-oxazolone) of 1.36 and a self-aminoacylation (biotinyl-Phe-oxazolone) of 1.06. For the same sequence, the self-aminoacylation (biotinyl-Leu-oxazolone) was 1.17, the self-aminoacylation (biotinyl-Met-oxazolone) was 1.11 and the self-aminoacylation (biotinyl-Trp-oxazolone) was 0.925.
In the case of “CCACAAUUCAAGCAUUCGGUC [Fam1B.1 aminoacylation ribozyme variant]”, the self-aminoacylation (biotinyl-Val-oxazolone) is reported as 1.85, the self-aminoacylation (biotinyl-Ile-oxazolone) is reported as 1.96 and the self-aminoacylation (biotinyl-Phe-oxazolone) is reported as 1.36. For the same sequence, the self-aminoacylation (biotinyl-Leu-oxazolone) was 1.94, the self-aminoacylation (biotinyl-Met-oxazolone) was 1.68 and the self-aminoacylation (biotinyl-Trp-oxazolone) was 1.36.
Sequence “CCACAAUUCGAGCAAUCGGUC [Fam1B.1 aminoacylation ribozyme variant]” has a self-aminoacylation (biotinyl-Val-oxazolone) of 1.58, a self-aminoacylation (biotinyl-Ile-oxazolone) of 1.28 and a self-aminoacylation (biotinyl-Phe-oxazolone) of 0.736. For the same sequence, the self-aminoacylation (biotinyl-Leu-oxazolone) was 1.07, the self-aminoacylation (biotinyl-Met-oxazolone) was 0.985 and the self-aminoacylation (biotinyl-Trp-oxazolone) was 1.08.
“CCACACAUCAAACAAUCGGUC [Fam1B.1 aminoacylation ribozyme variant]” gave a self-aminoacylation (biotinyl-Val-oxazolone) of 0.92, a self-aminoacylation (biotinyl-Ile-oxazolone) of 0.795 and a self-aminoacylation (biotinyl-Phe-oxazolone) of 3.04. It also gave a self-aminoacylation (biotinyl-Leu-oxazolone) of 0.749, a self-aminoacylation (biotinyl-Met-oxazolone) of 0.715 and a self-aminoacylation (biotinyl-Trp-oxazolone) of 1.92.
“CCACACAUCAAGAAAUCGGUC [Fam1B.1 aminoacylation ribozyme variant]” gave a self-aminoacylation (biotinyl-Val-oxazolone) of 0.776, a self-aminoacylation (biotinyl-Ile-oxazolone) of 0.732 and a self-aminoacylation (biotinyl-Phe-oxazolone) of 1.2. It also gave a self-aminoacylation (biotinyl-Leu-oxazolone) of 0.792, a self-aminoacylation (biotinyl-Met-oxazolone) of 0.61 and a self-aminoacylation (biotinyl-Trp-oxazolone) of 0.645.
For “CCACACAUCAAGCAACCGGUC [Fam1B.1 aminoacylation ribozyme variant]”, the self-aminoacylation (biotinyl-Val-oxazolone) was 1.13, the self-aminoacylation (biotinyl-Ile-oxazolone) was 1.4 and the self-aminoacylation (biotinyl-Phe-oxazolone) was 1.29. The self-aminoacylation (biotinyl-Leu-oxazolone) was 0.817, the self-aminoacylation (biotinyl-Met-oxazolone) was 1.21 and the self-aminoacylation (biotinyl-Trp-oxazolone) was 1.14.
For “CCACACAUCAAGCAAUAGGUC [Fam1B.1 aminoacylation ribozyme variant]”, the self-aminoacylation (biotinyl-Val-oxazolone) was 1.02, the self-aminoacylation (biotinyl-Ile-oxazolone) was 0.864 and the self-aminoacylation (biotinyl-Phe-oxazolone) was 1.52. It also gave a self-aminoacylation (biotinyl-Leu-oxazolone) of 0.574, a self-aminoacylation (biotinyl-Met-oxazolone) of 0.698 and a self-aminoacylation (biotinyl-Trp-oxazolone) of 0.736.
Sequence “CCACACAUCAAGCAAUCGGAC [Fam1B.1 aminoacylation ribozyme variant]” has a self-aminoacylation (biotinyl-Val-oxazolone) of 1.03, a self-aminoacylation (biotinyl-Ile-oxazolone) of 0.897 and a self-aminoacylation (biotinyl-Phe-oxazolone) of 0.446. The self-aminoacylation (biotinyl-Leu-oxazolone) was 0.808, the self-aminoacylation (biotinyl-Met-oxazolone) was 0.748 and the self-aminoacylation (biotinyl-Trp-oxazolone) was 0.906.
Sequence “CCACACAUUAAGCAAUCGGUC [Fam1B.1 aminoacylation ribozyme variant]” has a self-aminoacylation (biotinyl-Val-oxazolone) of 0.867, a self-aminoacylation (biotinyl-Ile-oxazolone) of 0.966 and a self-aminoacylation (biotinyl-Phe-oxazolone) of 1. For the same sequence, the self-aminoacylation (biotinyl-Leu-oxazolone) was 0.667, the self-aminoacylation (biotinyl-Met-oxazolone) was 0.709 and the self-aminoacylation (biotinyl-Trp-oxazolone) was 0.62.
“CCACACCUCAAACAAUCGGUC [Fam1B.1 aminoacylation ribozyme variant]” showed a self-aminoacylation (biotinyl-Val-oxazolone) of 1.13, a self-aminoacylation (biotinyl-Ile-oxazolone) of 1.24 and a self-aminoacylation (biotinyl-Phe-oxazolone) of 7.05. It also gave a self-aminoacylation (biotinyl-Leu-oxazolone) of 1.29, a self-aminoacylation (biotinyl-Met-oxazolone) of 1.04 and a self-aminoacylation (biotinyl-Trp-oxazolone) of 4.47.
“CCACACCUGAAGCAAUCGGUC [Fam1B.1 aminoacylation ribozyme variant]” was tested, and the self-aminoacylation (biotinyl-Val-oxazolone) was 1.18, the self-aminoacylation (biotinyl-Ile-oxazolone) was 1.01 and the self-aminoacylation (biotinyl-Phe-oxazolone) was 0.952. The self-aminoacylation (biotinyl-Leu-oxazolone) was 0.946, the self-aminoacylation (biotinyl-Met-oxazolone) was 0.903 and the self-aminoacylation (biotinyl-Trp-oxazolone) was 0.911.
In the case of “CCACACGCCAAGCAAUCGGUC [Fam1B.1 aminoacylation ribozyme variant]”, the self-aminoacylation (biotinyl-Val-oxazolone) is reported as 1.23, the self-aminoacylation (biotinyl-Ile-oxazolone) is reported as 0.961 and the self-aminoacylation (biotinyl-Phe-oxazolone) is reported as 0.829. It also gave a self-aminoacylation (biotinyl-Leu-oxazolone) of 0.862, a self-aminoacylation (biotinyl-Met-oxazolone) of 1.29 and a self-aminoacylation (biotinyl-Trp-oxazolone) of 0.555.
Sequence “CCACACGUCAAGCAAUCAGUC [Fam1B.1 aminoacylation ribozyme variant]” has a self-aminoacylation (biotinyl-Val-oxazolone) of 0.88, a self-aminoacylation (biotinyl-Ile-oxazolone) of 0.647 and a self-aminoacylation (biotinyl-Phe-oxazolone) of 0.738. For the same sequence, the self-aminoacylation (biotinyl-Leu-oxazolone) was 0.713, the self-aminoacylation (biotinyl-Met-oxazolone) was 0.665 and the self-aminoacylation (biotinyl-Trp-oxazolone) was 0.482.
Work on “CCACACGUCAAGCAAUCGAUC [Fam1B.1 aminoacylation ribozyme variant]” yielded a self-aminoacylation (biotinyl-Val-oxazolone) of 0.921, a self-aminoacylation (biotinyl-Ile-oxazolone) of 0.667 and a self-aminoacylation (biotinyl-Phe-oxazolone) of 0.631. The self-aminoacylation (biotinyl-Leu-oxazolone) was 0.62, the self-aminoacylation (biotinyl-Met-oxazolone) was 0.657 and the self-aminoacylation (biotinyl-Trp-oxazolone) was 0.645.
Sequence “CCACACGUCAAGCAAUCGGAC [Fam1B.1 aminoacylation ribozyme variant]” has a self-aminoacylation (biotinyl-Val-oxazolone) of 2.03, a self-aminoacylation (biotinyl-Ile-oxazolone) of 1.53 and a self-aminoacylation (biotinyl-Phe-oxazolone) of 0.667. For the same sequence, the self-aminoacylation (biotinyl-Leu-oxazolone) was 1.36, the self-aminoacylation (biotinyl-Met-oxazolone) was 1.14 and the self-aminoacylation (biotinyl-Trp-oxazolone) was 0.681.
“CCACACGUCAAGCAAUCGGUG [Fam1B.1 aminoacylation ribozyme variant]” was tested, and the self-aminoacylation (biotinyl-Val-oxazolone) was 2.78, the self-aminoacylation (biotinyl-Ile-oxazolone) was 1.63 and the self-aminoacylation (biotinyl-Phe-oxazolone) was 9.7. For the same sequence, the self-aminoacylation (biotinyl-Leu-oxazolone) was 1.59, the self-aminoacylation (biotinyl-Met-oxazolone) was 2.02 and the self-aminoacylation (biotinyl-Trp-oxazolone) was 2.35.
Sequence “CCACACUAAAAGCAAUCGGUC [Fam1B.1 aminoacylation ribozyme variant]” has a self-aminoacylation (biotinyl-Val-oxazolone) of 0.959, a self-aminoacylation (biotinyl-Ile-oxazolone) of 0.867 and a self-aminoacylation (biotinyl-Phe-oxazolone) of 0.761. It also gave a self-aminoacylation (biotinyl-Leu-oxazolone) of 0.677, a self-aminoacylation (biotinyl-Met-oxazolone) of 0.688 and a self-aminoacylation (biotinyl-Trp-oxazolone) of 0.746.
In the case of “CCACACUACAAGCAAUCGGUG [Fam1B.1 aminoacylation ribozyme variant]”, the self-aminoacylation (biotinyl-Val-oxazolone) is reported as 2.85, the self-aminoacylation (biotinyl-Ile-oxazolone) is reported as 3.62 and the self-aminoacylation (biotinyl-Phe-oxazolone) is reported as 31.8. For the same sequence, the self-aminoacylation (biotinyl-Leu-oxazolone) was 6.9, the self-aminoacylation (biotinyl-Met-oxazolone) was 4.92 and the self-aminoacylation (biotinyl-Trp-oxazolone) was 5.03.
In the case of “CCACACUACAAGCAAUCUGUC [Fam1B.1 aminoacylation ribozyme variant]”, the self-aminoacylation (biotinyl-Val-oxazolone) is reported as 0.566, the self-aminoacylation (biotinyl-Ile-oxazolone) is reported as 0.496 and the self-aminoacylation (biotinyl-Phe-oxazolone) is reported as 0.747. For the same sequence, the self-aminoacylation (biotinyl-Leu-oxazolone) was 0.49, the self-aminoacylation (biotinyl-Met-oxazolone) was 0.271 and the self-aminoacylation (biotinyl-Trp-oxazolone) was 0.353.
